Data as given in the RNAGym collection of RNA variant scans (doi:10.1073/pnas.2313332121).

B1: TPR t1 (parent)
chain: GACCAAUCUGCCCUCAGAGCUCGAGAACAUCUUCGGAUGCAGAGGAGGCAGGCUUCGGUGGCGCGAUAGCGCCAACGUCCUCAACCUCCAAUGCAUCCCACCACAUGAUGAUGCCUGAAGAGCCUUGGUUUUUUG

Variants of: B1
Assay: polymerase ribozyme fitness, log enrichment relative to wild type (log ratio); higher = more active; in vitro selection for triplet polymerase activity
In short: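 Fitness is a logarithmic measure of how a genotype enriched relative to the wild type, with replicate averages weighted by inverse variance. The logarithm uses base 2, and enrichment came from Illumina sequencing of input and output libraries. Those libraries were PCR-built, transcribed mutants of each subunit of a heterodimeric triplet polymerase ribozyme, passed through one triplicate in vitro selection round that included frozen incubation at −7 °C, gel excision of extended constructs and streptavidin-bead capture. Genotypes were kept only if they had ≥10 input reads and ≥1 read per output.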

Row | Variant | polymerase ribozyme fitness (log ratio)
1 | A29C C31G G61U C101U A121U C124A | -5.89
2 | C28G U32C G51U C79G | -5.29
3 | C28U U129G | -2.18
4 | A29G G45U C73U U78G U87G | -2.9
5 | C28A C88U C101U | -5.29
6 | A29C G69U G77U | -2.24
7 | C28U G45A G63U U78C | -5
8 | C28U G47A G60C | -3.22
9 | C28A C73U | -3.04
10 | C28G G57U | -2.76
11 | C28G G57A | -4.66
12 | A29G G52U C70U U125A | -2.42
13 | C28U A105C | -4.77
14 | A29G | -0.987
15 | A29C | -2.15
16 | C28A U55G G71A | -5.6
17 | C28U G39C C53U G61U | -2.31
18 | A29C G44U C73G C82G U112C C115G | -7.14
19 | C28U G52U C101U | -4.04
20 | C28U A43U U59G C73U | -6.04
21 | A29G G71U | -1.72

Row | Variant | polymerase ribozyme fitness (log ratio)
22 | A29C C40U A41U G58C G71U C104U U129A | -6.05
23 | C28A G117A | -4.5
24 | A29G A37C G45C | -3.58
25 | C28G A84U A103U G110C | -4.22
26 | A29G C53G U87C G113C | -3.02
27 | C28A U38G G60A | -5.64
28 | C28U G36C C79G A111U | -6.86
29 | C28G C98U | -4.78
30 | C28G G120C | -1.89
31 | A29G C79U | -1.06
32 | C28U G39U G71C C99U G120A | -4.64
33 | C28A G110C C115U U133A | -5.27
34 | C28U G58C G61C | -2.78
35 | A27U U133C | -2.05
36 | C28G G47U C53U | -4.48
37 | C28U G45A G63C | -3.75
38 | A29G A50C | -1.66
39 | C28A G61U | -3.73
40 | C28U A46U C94G | -4.44
41 | C28G A37G G48A C104U C123A | -2.85
42 | C28U G45A G52A U116C | -4.51

Row | Variant | polymerase ribozyme fitness (log ratio)
43 | A29G G58C G120U | -1.73
44 | C28U A29G C72U U112A C124U | -7.83
45 | C28U A37U G44U A90C | -3.61
46 | C28G C56U C80U | -4.97
47 | C28U C53G U59G | -2.35
48 | A27U U131C | -2.91
49 | C28G C56U | -2.39
50 | C28G C56G | -3.01
51 | C28U G52A | -2.18
52 | C28G C73G C104A A111C | -4.53
53 | C28U C72U U112A G122A U129A | -4.79
54 | C28G C40U C53U C56G A91C C115U U129A | -5.15
55 | C28U C64U | -2.29
56 | C28U G120U | -1.78
57 | C28U G120C | -1.37
58 | C28G A50G G69U | -0.817
59 | C28G G57C A84U C94U A118U | -2.35
60 | C28U U112A | -1.56
61 | C28U U112G | -1.97
62 | C28U U112C | 0.129
63 | A27U U112C | -1.46

Row | Variant | polymerase ribozyme fitness (log ratio)
64 | C28U G58A | -2.03
65 | C28G G57C A83C C123A | -2.8
66 | C28G G77U U78A C82U | -3.54
67 | A29G C72U G135U | -1.91
68 | C28G C64U U81A G93U C101U U112G | -5.16
69 | A29C C73U U96A | -5.54
70 | C28A C49U | -4.87
71 | C28G G42A A43C G69U U96A C101U C124U | -4.78
72 | C28G C40A G71A C94U G110C | -1.03
73 | A29G C97A U112C | -4.92
74 | A29G G61A | -0.852
75 | C28U C56G | -2.75
76 | A29C C49A G77A U78A | -3.15
77 | C28U G52C G61A U106A U112A | -1.95
78 | C28U A43U C89G | -5.07
79 | C28G G63C U129A | -4.76
80 | A29C C56G | -3.25
81 | A27U U116G | -5.63
82 | C28A A43G G51U A90G G110A | -4.93
83 | A29G G77A U78A C123A | -2.27
84 | C28U C101A U106A | -1.04
